Measurements from patent publication KR20220167207A.

Columns and labels:
[1] = target: CADM1 on small cell lung cancer cell lines H146 and H69 (human) (UniProt Q9BY67); experiment: flow cytometry, PE anti-HA antibody alone (control) on H69 cells
[2] = target: CADM1 on small cell lung cancer cell lines H146 and H69 (human) (UniProt Q9BY67); experiment: flow cytometry, PE anti-HA antibody alone (control) on H146 cells
[3] = target: T1, CADM1 peptide structure expressed on cells (CADM1 peptide, Myc tag, hinge, transmembrane domain, GFP) (human); experiment: flow cytometry, PE anti-HA antibody alone (control) on cells with the CADM1 peptide structure
T1 sequence: DSRAGEEGSIRAVDH

[4] = target: CADM1 peptide expressed on SBC-5 small cell lung cancer cells (CADM1-SBC-5; peptide - transmembrane domain - GFP) (human); experiment: flow cytometry, PE anti-HA antibody alone (control) on SBC-5 cells expressing the CADM1 peptide
[5] = target: comparison structure: the same structure without the CADM1 peptide (Myc tag, hinge, transmembrane domain, GFP) on cells; experiment: flow cytometry, PE anti-HA antibody alone (control) on cells with the structure without the peptide

결합력 % [1]: 2.2%
결합력 % [2]: 2.1%
결합력 % [3]: 0%
결합력 % [4]: 0.3%
결합력 % [5]: 0.1%
Substance: PE-conjugated HA antibody (16B12 clone, Biolegend, Cat No. 901518)
